From US20090191117A1

Columns and labels:
[1] = target: αvβ5 integrin on HT-29 human colon carcinoma cells (human) (UniProt P06756); test: radiolabelled antibody binding to HT-29 cells, n = 1
[2] = target: αvβ3 and αvβ5 integrins on A375S2 human melanoma cells (human) (UniProt P06756); test: radiolabelled antibody binding to A375S2 cells, n = 4
[3] = target: αVβ3 and αVβ5 integrins on M21 human melanoma cells (human) (UniProt P06756); test: radiolabelled antibody binding to M21 cells, n = 2
[4] = target: αVβ3 and αVβ5 integrins on M21 human melanoma cells (human) (UniProt P06756); test: 125-I antibody saturation binding to M21 cells, n = 8
[5] = target: αvβ3 and αvβ5 integrins on A375S2 human melanoma cells (human) (UniProt P06756); test: cell-based or functional assay
[6] = target: αvβ3 and αvβ5 integrins on A375S2 human melanoma cells (human) (UniProt P06756); test: 125-I antibody saturation binding to A375S2 cells, n = 7
[7] = target: αvβ3 and αvβ5 integrins on A375S2 human melanoma cells (human) (UniProt P06756); test: radiolabelled antibody binding to A375S2 cells, n = 2
[8] = target: αvβ3 and αvβ5 integrins on A375S2 human melanoma cells (human) (UniProt P06756); test: 125-I Fab saturation binding to A375S2 cells, n = 6
[9] = target: αVβ3 and αVβ5 integrins on M21 human melanoma cells (human) (UniProt P06756); test: 125-I Fab saturation binding to M21 cells, n = 7

Sequence of αvβ3 and αvβ5 integrins on A375S2 human melanoma cells (human) (P06756 31-1048 A375S, chain 1 of 3): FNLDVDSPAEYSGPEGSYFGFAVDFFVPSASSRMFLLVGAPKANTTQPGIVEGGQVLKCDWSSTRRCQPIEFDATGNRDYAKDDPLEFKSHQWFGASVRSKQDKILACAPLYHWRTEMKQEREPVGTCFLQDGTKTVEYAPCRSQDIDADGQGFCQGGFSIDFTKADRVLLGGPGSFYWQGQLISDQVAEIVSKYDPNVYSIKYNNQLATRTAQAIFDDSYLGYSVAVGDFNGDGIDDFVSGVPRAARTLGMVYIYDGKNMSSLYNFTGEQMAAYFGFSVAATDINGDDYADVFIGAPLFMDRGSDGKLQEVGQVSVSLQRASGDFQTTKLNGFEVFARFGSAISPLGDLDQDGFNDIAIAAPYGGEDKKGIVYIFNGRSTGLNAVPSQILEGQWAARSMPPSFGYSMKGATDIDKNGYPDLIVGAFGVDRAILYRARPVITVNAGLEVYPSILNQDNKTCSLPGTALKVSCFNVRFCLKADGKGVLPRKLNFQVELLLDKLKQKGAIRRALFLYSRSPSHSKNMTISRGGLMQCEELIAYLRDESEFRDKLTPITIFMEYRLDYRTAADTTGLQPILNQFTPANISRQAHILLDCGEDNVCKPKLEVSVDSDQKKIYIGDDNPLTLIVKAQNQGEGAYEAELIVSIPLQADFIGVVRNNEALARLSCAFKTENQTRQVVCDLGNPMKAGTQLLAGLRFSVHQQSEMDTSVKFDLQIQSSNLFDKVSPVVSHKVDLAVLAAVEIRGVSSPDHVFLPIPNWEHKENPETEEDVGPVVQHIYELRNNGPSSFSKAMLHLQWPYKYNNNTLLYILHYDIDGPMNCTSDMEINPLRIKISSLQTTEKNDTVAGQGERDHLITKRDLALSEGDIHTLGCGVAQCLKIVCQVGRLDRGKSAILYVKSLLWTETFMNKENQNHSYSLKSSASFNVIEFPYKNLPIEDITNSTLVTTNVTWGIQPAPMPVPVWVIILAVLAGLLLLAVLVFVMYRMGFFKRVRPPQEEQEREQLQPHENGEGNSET
Sequence of αvβ3 and αvβ5 integrins on A375S2 human melanoma cells (human) (P05106 27-788, chain 2 of 3, further chain): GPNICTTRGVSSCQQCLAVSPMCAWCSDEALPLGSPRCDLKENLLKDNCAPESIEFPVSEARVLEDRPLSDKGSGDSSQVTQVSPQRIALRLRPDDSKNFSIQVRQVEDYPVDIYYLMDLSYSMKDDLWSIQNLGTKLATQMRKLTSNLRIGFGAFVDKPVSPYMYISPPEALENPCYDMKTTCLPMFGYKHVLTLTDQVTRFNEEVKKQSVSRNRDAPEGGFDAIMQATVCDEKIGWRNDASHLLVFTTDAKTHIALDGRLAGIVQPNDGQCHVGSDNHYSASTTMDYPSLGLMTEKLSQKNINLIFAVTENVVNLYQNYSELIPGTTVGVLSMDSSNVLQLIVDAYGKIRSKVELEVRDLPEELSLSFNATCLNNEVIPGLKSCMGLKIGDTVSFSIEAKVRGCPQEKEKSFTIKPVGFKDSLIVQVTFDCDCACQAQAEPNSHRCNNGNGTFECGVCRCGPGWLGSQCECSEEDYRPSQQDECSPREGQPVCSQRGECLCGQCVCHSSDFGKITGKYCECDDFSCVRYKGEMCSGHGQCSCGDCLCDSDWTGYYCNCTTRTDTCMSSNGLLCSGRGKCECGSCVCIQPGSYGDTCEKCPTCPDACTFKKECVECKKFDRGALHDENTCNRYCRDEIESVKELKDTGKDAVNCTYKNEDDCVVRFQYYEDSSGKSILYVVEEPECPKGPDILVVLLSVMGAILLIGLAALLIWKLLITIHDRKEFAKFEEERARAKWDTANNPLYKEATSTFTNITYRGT
Sequence of αvβ3 and αvβ5 integrins on A375S2 human melanoma cells (human) (P18084 24-799, chain 3 of 3, further chain): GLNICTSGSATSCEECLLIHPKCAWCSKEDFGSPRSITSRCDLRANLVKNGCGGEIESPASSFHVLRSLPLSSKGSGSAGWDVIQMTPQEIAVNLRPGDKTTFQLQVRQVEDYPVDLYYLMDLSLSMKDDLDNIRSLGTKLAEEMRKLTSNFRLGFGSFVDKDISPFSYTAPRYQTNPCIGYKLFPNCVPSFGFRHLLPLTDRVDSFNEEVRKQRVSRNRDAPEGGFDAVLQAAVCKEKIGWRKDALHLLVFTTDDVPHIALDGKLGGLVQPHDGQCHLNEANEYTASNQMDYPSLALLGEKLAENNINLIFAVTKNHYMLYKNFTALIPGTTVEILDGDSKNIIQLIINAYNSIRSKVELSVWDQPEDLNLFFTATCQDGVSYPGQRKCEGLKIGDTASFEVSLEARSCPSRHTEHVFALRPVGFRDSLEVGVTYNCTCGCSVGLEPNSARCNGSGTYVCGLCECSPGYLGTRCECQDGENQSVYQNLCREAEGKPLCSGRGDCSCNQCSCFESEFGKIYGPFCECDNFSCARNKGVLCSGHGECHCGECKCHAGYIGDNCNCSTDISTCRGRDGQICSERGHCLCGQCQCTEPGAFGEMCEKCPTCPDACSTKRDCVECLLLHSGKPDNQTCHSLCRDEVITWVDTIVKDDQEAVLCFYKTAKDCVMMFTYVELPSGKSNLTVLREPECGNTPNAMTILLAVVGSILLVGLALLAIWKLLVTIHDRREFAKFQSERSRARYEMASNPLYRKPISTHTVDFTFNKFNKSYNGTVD
Sequence of αvβ5 integrin on HT-29 human colon carcinoma cells (human) (P06756 31-1048, chain 1 of 2): as the sequence (P06756 31-1048 A375S, chain 1 of 3) above, with S345A counted along it
Sequence of αvβ5 integrin on HT-29 human colon carcinoma cells (human) (P18084 24-799, chain 2 of 2, further chain): as the sequence (P18084 24-799, chain 3 of 3, further chain) above

## P1F6 (antibody)
[1]
  Receptors per cell (receptors per cell): 73000
[2]
  Receptors per cell (receptors per cell): 70000
[3]
  Receptors per cell (receptors per cell): 44000

## CNTO 95 (antibody)
[4]
  Receptors per cell (receptors per cell): 200000
[5]
  A375S.2 cell adhesion to fibrin, percent of adhesion without antibody, antibody at 10 µg/ml: 43.3%
  A375S.2 cell adhesion to fibrinogen, percent of adhesion without antibody, antibody at 10 µg/ml: 11.4%
  A375S.2 cell adhesion to gelatin, percent of adhesion without antibody, antibody at 10 µg/ml: 23.2%
  A375S.2 cell adhesion to vitronectin, percent of adhesion without antibody, antibody at 10 µg/ml: 1.4%
[6]
  Receptors per cell (receptors per cell): 120000

## LM609 (antibody)
[7]
  Receptors per cell (receptors per cell): 300000

## ReoPro (c7E3 Fab)
[8]
  Receptors per cell (receptors per cell): 370000
[9]
  Receptors per cell (receptors per cell): 660000
